{"source": "paper PMC11624282", "about": "“PARP1 condensates differentially partition DNA repair proteins and enhance DNA ligation”", "binders": {"B1": {"name": "60 bp DNA-ATTO647N (dsDNA)", "DNA 1": "ACGAAGTCTTATGGCAAAACCGATGGACTATGTTTCGGGTAGCACCAGAAGTCTATAACA", "DNA 2": "TGTTATAGACTTCTGGTGCTACCCGAAACATAGTCCATCGGTTTTGCCATAAGACTTCGT", "modifications": "5' BioTEG on S3"}, "B2": {"name": "triplex DNA (nicked) (dsDNA)", "DNA 1": "GCTTAGCTTGGAATCGTATCATGTACACTCGTGTGCCGTGTAGACCGTGCC", "DNA 2": "TGTACATGATACGATTCCAAGCTAAGC", "DNA 3": "GGCACGGTCTACACGGCACACGAG", "modifications": "5'-phosphate on S9"}}, "key": {"[1]": {"biological_target": "PARP1 (Homo sapiens, UniProt P09874 1-1014)", "sequence (P09874 whole entry, the tested form may be a part)": "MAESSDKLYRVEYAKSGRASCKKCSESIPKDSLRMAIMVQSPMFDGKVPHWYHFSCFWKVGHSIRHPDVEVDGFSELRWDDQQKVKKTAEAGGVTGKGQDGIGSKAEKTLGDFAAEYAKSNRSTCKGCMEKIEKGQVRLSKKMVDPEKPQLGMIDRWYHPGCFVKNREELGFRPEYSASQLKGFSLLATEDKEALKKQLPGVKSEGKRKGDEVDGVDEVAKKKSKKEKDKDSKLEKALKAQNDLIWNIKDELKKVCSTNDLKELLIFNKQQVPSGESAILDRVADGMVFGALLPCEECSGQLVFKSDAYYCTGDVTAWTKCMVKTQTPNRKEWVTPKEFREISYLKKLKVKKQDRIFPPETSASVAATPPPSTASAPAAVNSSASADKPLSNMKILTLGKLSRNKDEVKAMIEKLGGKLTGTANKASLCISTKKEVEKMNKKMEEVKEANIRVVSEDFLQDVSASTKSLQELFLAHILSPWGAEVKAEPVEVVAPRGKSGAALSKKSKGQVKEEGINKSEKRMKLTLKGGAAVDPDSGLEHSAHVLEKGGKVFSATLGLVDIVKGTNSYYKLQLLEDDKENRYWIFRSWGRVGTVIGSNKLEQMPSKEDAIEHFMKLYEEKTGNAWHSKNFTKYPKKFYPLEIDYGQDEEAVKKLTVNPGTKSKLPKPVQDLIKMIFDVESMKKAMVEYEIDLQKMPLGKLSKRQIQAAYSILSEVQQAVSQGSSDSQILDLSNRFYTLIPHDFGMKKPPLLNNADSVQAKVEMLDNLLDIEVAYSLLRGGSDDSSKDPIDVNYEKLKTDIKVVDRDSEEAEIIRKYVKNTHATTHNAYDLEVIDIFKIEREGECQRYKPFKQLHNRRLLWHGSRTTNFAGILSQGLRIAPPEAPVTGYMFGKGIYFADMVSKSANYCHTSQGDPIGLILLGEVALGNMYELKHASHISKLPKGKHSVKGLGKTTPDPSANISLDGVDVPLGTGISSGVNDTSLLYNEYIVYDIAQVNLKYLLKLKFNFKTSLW", "test": "single-molecule oligo capture on lambda DNA; 5 nM PARP1, 20 nM oligo; 98% of oligos dissociate with 500 µM NAD+; Condensation (DIC, PARP1 truncations): 20 mM Tris pH 7.5, 50 mM NaCl, 7.5 mM MgCl2, 1 mM DTT; DNA curtains: 25-150 mM NaCl tested; temperature not stated", "conditions": "protein: recombinant; tags: none stated after His-SUMO cleavage; label: 3' ATTO647N on S4; blunt"}, "[2]": {"biological_target": "T1, mCherry-PARP1 (Homo sapiens, UniProt P09874 1-1014)", "T1 sequence (P09874 whole entry, the tested form may be a part)": "as above", "test": "condensation, fluorescence microscopy; 4 µM protein; lost at high salt; reentrant at high DNA; Condensation (DIC, PARP1 truncations): 20 mM Tris pH 7.5, 50 mM NaCl, 7.5 mM MgCl2, 1 mM DTT; DNA curtains: 25-150 mM NaCl tested; temperature not stated", "conditions": "protein: recombinant; tags: mCherry (pET-SUMO-mCherry-PARP1); label: Cy5 at 5' of S10 (labelled version, 10% where stated); three annealed oligos, central nick, blunt ends"}, "[3]": {"biological_target": "T1, mCherry-PARP1", "test": "condensation, fluorescence microscopy; 4 µM protein; Condensation (DIC, PARP1 truncations): 20 mM Tris pH 7.5, 50 mM NaCl, 7.5 mM MgCl2, 1 mM DTT; DNA curtains: 25-150 mM NaCl tested; temperature not stated", "conditions": "protein: recombinant; tags: mCherry (pET-SUMO-mCherry-PARP1); dumbbell: two hairpins with a single nick"}}}
{"binder": "B1", "values": [{"measurement": "binding result", "setting": "[1]", "result": "binds"}]}
{"binder": "B2", "values": [{"measurement": "binding result", "setting": "[2]", "result": "binds"}]}
{"binder": "GCTGGCTTCGTAAGAAGCCAGCTCGCGGTCAGCTTGCTGACCGCG (structured_DNA, 5'-phosphate)", "note": "[nicked dumbbell DNA]", "values": [{"measurement": "binding result", "setting": "[3]", "result": "binds"}]}
